The data set in a line: soluble on expression in E. coli; label from the status in PepcDB or PDB records.
“MSLESPELKALVDAGKLPAVEKRLPKEPLVLTPLESVGTYGGTWRTATFGGGDSEIERSIGYTRLVRWNPEWTEVIPDIAKSVEVNDNATEYTFTLREGTRWSDGEPFTADDLVWWNENVLRNTKITPAAPNWLTAGGETVKVEKLADDKVIFKFAAPNGLFLMNMATVRGSDILAAAPAHYLKQFHKDFNPDGIDALVKAAGATDWVQLFNNKIGFPGRWRDLGRPTLDAWVLTAPYNGTTQVVGERNPYYAKVDTAGNQLPYFDRITIDVMQDTQAIILKAISGEIDMQNRFIETTDARTVIVQNQEKGGYGLFIARPAWSNALLITLNQTHKNPALRAVFSNKDFRIGLSYAINREELNQLIYAGQAKPYQAAPREGTALYDEKMATQYLEYNVDLANQYLDKAGLTKHDAEGYRLGQDGKRITFAIDALTGSPIQVDALEMIQRYWRAVGIDMQPRPAERSLIFSRLQNNENDGLGWVGGGGYDFLGLLDPKWYFPHEYESSFATAWGLYYQNPKDPNAQEPSPAAKKQMDLYRQVQEAPTLEKQLAAMKELLAITRDEFYVIGTNLEPDRVGIVKTNMRNVPKVIPSTSFYMTPGPAKPETFYYQQEGHHHHHH”: the “soluble on expression in E. coli” value is given as “soluble”.
For “MSLSRSFDTAPLGGRLNLTVADAEVFRNFLPVGQTVKGSLNAAVTLGGSIADPHLGGSINGDKLYYRNQTQGIILDNGSLRSHIAGRKWVIDSLKFRHEGTAELSGTVGMENSGPDVDIGAVFDKYRILSRPNRRLTVSGNTRLRYSPQKGISVTGMIKTDQGLFGSQKSSMPSVGDDVVVLGEVKKEAAAPLPVNMNLTLDLNDGIRFAGYGADVTIGGKLTLTAQSGGSVRGVGTVRVIKGRYKAYGQDLDITKGTVSFVGPLNDPNLNIRAERRLSPVGAGVEILGSLNSPRITLTANEPMSEKDKLSWLILNRAGSGSSGDNAALSAAAGALLAGQINDRIGLVDDLGFTSKRSRNAQTGELNPAEQVLTVGKQLTGKLYIGYEYSISSAEQSVKLIYRLTRAIQAVARIGSRSSGGELTYTIRFDRFSGSDEGHHHHHH” the value was “not soluble”.
Turning to “SAQESLESQEQRARAALRERYLRSLLAMVGHQVSFTLHEGVRVAAHFGATDLDVANFYVSQLQTPIGVQAEALLRCSDIISYTFKP”, the “soluble on expression in E. coli” value is on record as “soluble”.
With “MGHHHHHHSHMATSEILPSFVATMDASNFSFWQVLCSWLSNSPNYEEITKWYLGWKSMFSDQVLAHPSVKDKFNEALDIMNRAVSSNVGAYMQPGARENIAYLTHTERRKDFQYEAMQERREAENMAQRGIGVAASSVPMNFKDLIETKAEEHNIVFMPVIGKRHEGKQLYTFGRIVIYIDRGVVFVQGEKTWVPTSLQSLIDMAK” the entry was “not soluble”; with “MGSDKIHHHHHHMSTNLDQLTDWLKEHKITEVECMVSDLTGITRGKISPTNKFIAEKGMRLPESVLLQTVTGDYVEDDIYYELLDPADIDMICRPDQNAVYLVPWAVEPTAQVIHDTYDKQGNPIELSPRNVLKKVLKLYADQGWQPIVAPEMEFYLTKRSDDPDYPLQPPIGRSGRPETGRQSFSIEAANEFDPLFEDVYDWCELQNLDLDTLIHEDGTAQMEINFRHGDALSLADQILVFKRTMREAALKHDVAATFMAKPMTGEPGSAMHLHQSIIDIETGKNIFSNEDGTMSELFLNHVGGLQKFIPELLPLFAPNVNSFRRFLPDTSAPVNVEWGEENRTVGLRVPDAVPQNRRVENRLPGADANPYLAIAASLLCGFIGMVEGINPSAPVVGRGYERRNLRLPLTIEDALERMENSKTIEKYLGKKFIIGYVAVKRAEHENFKRVISSWEREFLLFAV”, “not soluble”; with “MGSDKIHHHHHHMKEILKQQYAIIDIGSNTMRLVIYEKQNGGFYKEIENTKVVARLRNYLVDGVLIEEGIEVLLQTLFQFQESTRFHQLRHVLCVATATIRQAENQEEIKKLVEGQTDFTLRVLSEYEEARYGYLAVMNSTSFSEGITVDIGGGSTEVTYFRNREILEYHSFPFGALSLKQQFIKEDIPTEEELDKLQTYLEYQFRTLPWLIDKKLPLIAIGGSARNLVKIHQNLICYPIAGVHLYKMKEEDIKNVKEELEGLSFIELQKLEGLAKDRADTIVPAVEVFHTLVNVIEAPAFVLSRKGLREGVFYEELTKDLGISYYPNVVEESLYLLSHEYEMDMEFVMQLIKHGRLICQQLEETGLISMSVKDWEVFHQAAKVFNIGKYIDEEASRLHTFYLLANKTIDGMMHKERVRLALIASYKSKMLFKQHLSPFEGWFDKNEQKKIRLLGAVLQFSAALNIRQRSLVESISITESKEGLTFKIVCEQSALAEKVQAEKQKKQLERVLKTNINLFFESKH”, “not soluble”.
For SVSEIQLMHNLGKHLNSMERVEWLRKKLQDVHNF the value was “soluble”.
